{"source": "IntAct's records for PubMed 34948388", "parents": {"B1": {"name": "Multifunctional methyltransferase subunit TRM112-like protein (Homo sapiens), Q9UI30 (parent)", "chain": "MKLLTHNLLSSHVRGVGSRGFPLRLQATEVRICPVEFNPNFVARMIPKVEWSAFLEAADNLRLIQVPKGPVEGYEENEEFLRTMHHLLLEVEVIEGTLQCPESGRMFPISRGIPNMLLSEEETES", "partner": "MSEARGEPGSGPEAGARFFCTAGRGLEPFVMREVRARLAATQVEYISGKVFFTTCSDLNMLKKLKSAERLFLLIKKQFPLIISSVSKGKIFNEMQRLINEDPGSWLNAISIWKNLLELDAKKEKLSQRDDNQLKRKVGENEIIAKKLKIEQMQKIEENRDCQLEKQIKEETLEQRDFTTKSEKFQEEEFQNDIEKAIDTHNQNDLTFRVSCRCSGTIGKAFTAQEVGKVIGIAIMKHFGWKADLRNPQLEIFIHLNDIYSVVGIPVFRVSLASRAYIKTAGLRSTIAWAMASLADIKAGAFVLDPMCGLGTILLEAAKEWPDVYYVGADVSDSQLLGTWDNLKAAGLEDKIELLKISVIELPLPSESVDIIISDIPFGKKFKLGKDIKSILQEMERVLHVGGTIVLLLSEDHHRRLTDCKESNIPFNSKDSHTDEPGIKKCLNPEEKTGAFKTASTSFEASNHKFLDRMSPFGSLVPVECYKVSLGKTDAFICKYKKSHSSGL"}, "B2": {"name": "Multifunctional methyltransferase subunit TRM112-like protein (Homo sapiens), Q9UI30 (parent)", "chain": "B1 chain", "partner": "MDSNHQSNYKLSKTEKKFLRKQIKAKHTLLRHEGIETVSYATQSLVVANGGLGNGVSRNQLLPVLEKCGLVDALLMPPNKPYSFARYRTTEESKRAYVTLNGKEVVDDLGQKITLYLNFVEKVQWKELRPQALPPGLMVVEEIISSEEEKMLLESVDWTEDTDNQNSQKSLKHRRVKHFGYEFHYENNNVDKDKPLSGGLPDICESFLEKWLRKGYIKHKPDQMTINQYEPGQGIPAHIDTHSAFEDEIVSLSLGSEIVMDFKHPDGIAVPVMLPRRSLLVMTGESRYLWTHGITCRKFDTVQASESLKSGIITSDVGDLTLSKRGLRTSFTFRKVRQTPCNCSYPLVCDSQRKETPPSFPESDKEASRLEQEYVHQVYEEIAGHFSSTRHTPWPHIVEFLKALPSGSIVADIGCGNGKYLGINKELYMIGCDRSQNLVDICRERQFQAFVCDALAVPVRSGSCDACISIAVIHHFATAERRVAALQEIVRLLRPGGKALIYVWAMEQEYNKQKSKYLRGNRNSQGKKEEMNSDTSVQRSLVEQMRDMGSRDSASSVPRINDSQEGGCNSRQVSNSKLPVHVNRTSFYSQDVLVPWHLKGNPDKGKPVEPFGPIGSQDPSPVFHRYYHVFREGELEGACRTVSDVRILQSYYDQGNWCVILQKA"}}}
{"variants_of": "B1", "details": "with thum2_human THUMPD2, Q9BTF0"}
{"variant": "MKLLTHNLLSSHVRGVGSRGFPLRLQATEVRICPVEFNPNFVARMIPKVEWSAFLEAADNLRLIQVPKGPVEGYEENEEFLRTMHHLLLEVEVIEGTLQCPESGRMFPISRGAPNMLLSEEETES", "effect of a mutation on the interaction": "disrupting interaction strength"}
{"variants_of": "B2", "details": "with alkb8_human ALKBH8, Q96BT7"}
{"variant": "MKLLTHNLLSSHVRGVGSRGFPLRLQATEVRICPVEFNPNFVARMIPKVAWSAFLEAADNLRLIQVPKGPVEGYEENEEFLRTMHHLLLEVEVIEGTLQCPESGRMFPISRGIPNMLLSEEETES", "effect of a mutation on the interaction": "with no effect"}
{"variant": "MKLLTHNLLSSHVRGVGSRGFPLRLQATEVRICPVEFNPNFVARMIPAVEWSAFLEAADNLRLIQVPKGPVEGYEENEEFLRTMHHLLLEVEVIEGTLQCPESGRMFPISRGIPNMLLSEEETES", "effect of a mutation on the interaction": "with no effect"}
{"variant": "MKLLTHNLLSSHVRGVGSRGFPLRLQATEVRICPVEFNPNFVARMIPKVEWSAFLEAADNLRLIQVPKGPVEGYEENEEFLRTMHHLLLEVEVIEGTLQCPESGRMAPISRGIPNMLLSEEETES", "effect of a mutation on the interaction": "decreasing interaction strength"}
{"variant": "MKLLTHNWLSSHVRGVGSRGFPLRLQATEVRICPVEFNPNFVARMIPKVEWSAFLEAADNLRLIQVPKGPVEGYEENEEFLRTMHHLLLEVEVIEGTLQCPESGRMFPISRGIPNMLLSEEETES", "effect of a mutation on the interaction": "with no effect"}
{"variant": "MKLLTHNLLSSHVRGVGSRGFPLRLQATEVRICPVEFNPNFVARMIPKVEWSAFLEAADNLRLIQVPKGPVEGYEENEEFLRTMHHLLLEVEVIEGTLQCPESGRMFPISRGAPNMLLSEEETES", "effect of a mutation on the interaction": "with no effect"}
{"variant": "MKLLTHNLLFSHVRGVGSRGFPLRLQATEVRICPVEFNPNFVARMIPKVEWSAFLEAADNLRLIQVPKGPVEGYEENEEFLRTMHHLLLEVEVIEGTLQCPESGRMFPISRGIPNMLLSEEETES", "effect of a mutation on the interaction": "with no effect"}
{"variant": "MKLLTHNLLSSHVRGVGSRGFPLRLQATEVRICPVEFNPNFVARMIPKVEWSAFLEAADNLRLIQVPKGPVEGYEENEEFLRTMHHLLLEVAVIEGTLQCPESGRMFPISRGIPNMLLSEEETES", "effect of a mutation on the interaction": "decreasing interaction strength"}
{"variant": "MKLLTHNLLSSHVRGVGSRGFPLRLQATEVRICPVEFNPNFVARAIPKVEWSAFLEAADNLRLIQVPKGPVEGYEENEEFLRTMHHLLLEVEVIEGTLQCPESGRMFPISRGIPNMLLSEEETES", "effect of a mutation on the interaction": "disrupting interaction strength"}
{"variant": "MKLLAHNLLSSHVRGVGSRGFPLRLQATEVRICPVEFNPNFVARMIPKVEWSAFLEAADNLRLIQVPKGPVEGYEENEEFLRTMHHLLLEVEVIEGTLQCPESGRMFPISRGIPNMLLSEEETES", "effect of a mutation on the interaction": "disrupting interaction strength"}
{"variant": "MKLLTHNLLSSHVRGVGSRGFPLRLQATEVRICPVEFNPNFVARMIPAVEWSAFLEAADNLRLIQVPKGPVEGYEENEEFLRTMHHLLLEVAVIEGTLQCPESGRMFPISRGIPNMLLSEEETES", "effect of a mutation on the interaction": "disrupting interaction strength"}
